The values below come from patent US20240158517A1 (HIFIBIO HK, published 2024).

Experiment [1] deals with T1, human CXCR5 (human, UniProt P32302 1-372).
T1 construct: whole, on cells; Always presented on cells; one entry is used for all cell lines; also called hCXCR5; C-X-C chemokine receptor type 5
T1 sequence (looked up): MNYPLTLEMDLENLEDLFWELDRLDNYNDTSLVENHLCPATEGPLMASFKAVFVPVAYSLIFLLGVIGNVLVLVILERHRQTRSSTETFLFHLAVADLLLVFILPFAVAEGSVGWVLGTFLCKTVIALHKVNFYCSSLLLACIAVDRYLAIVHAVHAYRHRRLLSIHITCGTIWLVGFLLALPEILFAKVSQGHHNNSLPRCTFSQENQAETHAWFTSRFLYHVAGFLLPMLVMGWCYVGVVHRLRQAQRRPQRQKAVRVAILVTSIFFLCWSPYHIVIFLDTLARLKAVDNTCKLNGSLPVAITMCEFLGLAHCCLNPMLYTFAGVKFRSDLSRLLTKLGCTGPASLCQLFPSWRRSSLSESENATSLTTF
Kind of experiment: binding to hCXCR5, Exp 1 (assay not given).

The target in experiment [2] is T1, human CXCR5. The experiment in a line: binding to hCXCR5, Exp 2 (assay not given).
Experiment [3] deals with T1, human CXCR5. The experiment in a line: binding to DX002 cells expressing CXCR5.
In experiment [4] the target is T1, human CXCR5. Kind of experiment: flow cytometry on adherent DX002 cells expressing CXCR5, MFI.
For experiment [5], the target named is T1, human CXCR5. The experiment in a line: flow cytometry on Raji cells, binding percentage, antibody at 1 nM and 0.1 nM. (Flow cytometry measures light scatter and fluorescence of single cells or particles in a stream.)
Description: Binding properties of these 36 humanized variants were tested in binding assay to Raji cells at two different concentrations, 1 nM and 0.1 nM.
For experiment [6], the target named is T1, human CXCR5. Kind of experiment: flow cytometry on an adherent stable cell line expressing hCXCR5, MFI normalized on the benchmark MFI.
Description: In order to test the binding capacity to CXCR5, six chimeric monoclonal antibodies were tested in binding assay using adherent stable cell line expressing the target antigen hCXCR5.
In the next experiment the target is T2, human CXCR3 (human, UniProt P49682 1-368, limits assumed).
T2 construct: also called hCXCR3
T2 sequence (looked up): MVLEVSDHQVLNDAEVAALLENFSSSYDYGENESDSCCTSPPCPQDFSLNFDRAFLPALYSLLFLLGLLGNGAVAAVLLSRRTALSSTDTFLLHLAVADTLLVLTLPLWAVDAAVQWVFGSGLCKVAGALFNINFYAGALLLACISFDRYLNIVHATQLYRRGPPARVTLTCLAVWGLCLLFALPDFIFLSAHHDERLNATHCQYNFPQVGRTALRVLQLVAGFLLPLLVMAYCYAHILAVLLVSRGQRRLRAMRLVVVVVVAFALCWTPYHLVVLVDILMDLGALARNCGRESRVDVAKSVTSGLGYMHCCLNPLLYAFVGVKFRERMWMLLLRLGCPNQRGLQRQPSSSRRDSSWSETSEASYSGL
Kind of experiment: flow cytometry (MFI) on hCXCR3.

For another experiment, the target named is T3, murine CXCR5 (mouse, UniProt Q04683 1-374).
T3 construct: whole, on cells; also called mouse CXCR5 ortholog
T3 sequence (looked up): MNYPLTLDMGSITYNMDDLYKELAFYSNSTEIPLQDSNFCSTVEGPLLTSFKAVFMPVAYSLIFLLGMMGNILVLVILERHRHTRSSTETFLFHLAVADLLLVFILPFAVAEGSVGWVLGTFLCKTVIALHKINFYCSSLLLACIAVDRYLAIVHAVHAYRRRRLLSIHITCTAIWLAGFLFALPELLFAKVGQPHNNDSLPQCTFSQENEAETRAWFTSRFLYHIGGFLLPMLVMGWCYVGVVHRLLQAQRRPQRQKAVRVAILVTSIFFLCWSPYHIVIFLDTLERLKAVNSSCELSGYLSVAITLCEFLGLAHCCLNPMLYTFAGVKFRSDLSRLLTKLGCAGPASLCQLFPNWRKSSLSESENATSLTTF
The experiment in a line: flow cytometry on cells transiently transfected with murine CXCR5.

B1: HFB2-4hz14-hG1DE (antibody, V domains shown)
VH: QVQLQESGPGLVKPSETLSLTCTVSGFSLTSYGVSWVRQPPGKGLEWIGVIWGDGSTNYNPSLKSRVTISKDTSKNQVSLKLSSVTAADTAVYYCARVVYWGQGTLVTVSS
VL: DIVMTQSPLSLPVTPGEPASISCRSSQSLLHSNGYNYLYWFLQKPGQSPQLLIYRGSNRASGVPDRFSGSGSGTDFTLKISRVEAEDVGVYYCMQHLQYPYTFGGGTKVEIK
notes: Humanized (VH3/VL1b), human IgG1 with S239D/I332E (hG1DE)
On to B1, for which the concentration for a half-maximal effect (EC50) in the experiment with human CXCR5 [1] was found to be 0.4 nM; with human CXCR5 [2], 0.1 nM.

B2: HFB2-4hz38hG1DE (antibody, V domains shown)
VH: QVQLQESGPGLVKPSETLSLTCTVSGFSLTSYGVSWVRQPPGKGLEWIGVIWGDGSTNYNPSLKSRVTISKDTSKNQVSLKLSSVTAADTAVYYCARVVYWGQGTLVTVSS
VL: DIVMTQSPDSLAVSLGERATINCRSSKSLLHSNGKTYLYWFQQKPGQSPKLLLYRMSNLASGVPDRFSGSGSGTDFTLTISSLQAEDVAVYYCMQHLEYPYTFGQGTKLEIK
notes: Humanized (VH3/VL7) in hG1DE format
For B2, the results for the EC50 in the experiment with human CXCR5 [3] and with human CXCR5 [4] were 0.106 nM and 0.0878 nM, respectively.

B3: HFB2-4hz12-hG1DE (antibody, V domains shown)
VH: QVQLQESGPGLVKPSETLSLTCTVSGFSLTSYGVSWVRQPPGKGLEWIGVIWGDGSTNYNPSLKSRVTISKDTSKNQVSLKLSSVTAADTAVYYCARVVYWGQGTLVTVSS
VL: DIQMTQSPSSLSASVGDRVTITCRSSKSLLHSNGKTYLYWFQQKPGKAPKLLIYRMSNLASGVPSRFSGSGSGTDFTLTISSLQPEDFATYYCMQHLEYPYTFGGGTKVEIK
notes: Humanized (VH3/VL4), human IgG1 with S239D/I332E (hG1DE); also called HFB2-4hz12hIgDE
On to B3, for which the concentration giving a half-maximal response (EC50) with human CXCR5 [1] was determined as 1.2 nM; in the experiment with human CXCR5 [2], 0.3 nM.

B4: HFB2-4hz37hG1DE (antibody, V domains shown)
VH: QVQLQESGPGLVKPSETLSLTCTVSGFSLTSYGVSWVRQPPGKGLEWIGVIWGDGSTNYNPSLKSRVTISKDTSKNQVSLKLSSVTAADTAVYYCARVVYWGQGTLVTVSS
VL: EIVMTQSPATLSVSPGERATLSCRSSKSLLHSNGKTYLYWFQQKPGQAPRLLIYRMSNLASGIPARFSGSGSGTEFTLTISSVQSEDVAVYYCMQHLEYPYTFGQGTKLEIK
notes: Humanized (VH3/VL6) produced in hG1DE format (human IgG1, S239D/I332E)
In the case of B4, the concentration giving a half-maximal response (EC50) with human CXCR5 [3] was 0.099 nM; in the experiment with human CXCR5 [4], 0.0785 nM.

B5: HFB2-VH6VL4 (antibody, V domains shown)
VH: QVQLQESGPGLVKPSGTLSLTCAVSGFSLTSYGVSWVRQPPGKGLEWIGVIWGDGSTNYNPSLKSRLTISKDKSKNQVSLKLSSVTAADTAVYYCARVVYWGQGTLVTVSS
VL: DIQMTQSPSSLSASVGDRVTITCRSSKSLLHSNGKTYLYWFQQKPGKAPKLLIYRMSNLASGVPSRFSGSGSGTDFTLTISSLQPEDFATYYCMQHLEYPYTFGGGTKVEIK
As to B5, the binding result with human CXCR5 [5] is reported as “binds”.

B6: HFB2-4hz39hG1DE (antibody, V domains shown)
VH: QVQLQESGPGLVKPSGTLSLTCAVSGFSLTSYGVSWVRQPPGKGLEWIGVIWGDGSTNYNPSLKSRLTISKDKSKNQVSLKLSSVTAADTAVYYCARVVYWGQGTLVTVSS
VL: EIVMTQSPATLSVSPGERATLSCRSSKSLLHSNGKTYLYWFQQKPGQAPRLLIYRMSNLASGIPARFSGSGSGTEFTLTISSVQSEDVAVYYCMQHLEYPYTFGQGTKLEIK
notes: Humanized (VH6/VL6) in hG1DE format
Take B6: the EC50 with human CXCR5 [3] was determined as 0.26 nM; in the experiment with human CXCR5 [4], 0.232 nM.

B7: HFB2-VH6VL7 (antibody, V domains shown)
VH: QVQLQESGPGLVKPSGTLSLTCAVSGFSLTSYGVSWVRQPPGKGLEWIGVIWGDGSTNYNPSLKSRLTISKDKSKNQVSLKLSSVTAADTAVYYCARVVYWGQGTLVTVSS
VL: DIVMTQSPDSLAVSLGERATINCRSSKSLLHSNGKTYLYWFQQKPGQSPKLLLYRMSNLASGVPDRFSGSGSGTDFTLTISSLQAEDVAVYYCMQHLEYPYTFGQGTKLEIK
Consider B7, for which, in the experiment with human CXCR5 [5], the binding result is recorded as “binds”.

B8: HFB2-4hz15-hG1DE (antibody, V domains shown)
VH: QVQLQESGPGLVKPSETLSLTCTVSGFSLTSYGVSWVRQPPGKGLEWIGVIWGDGSTNYNPSLKSRVTISKDTSKNQVSLKLSSVTAADTAVYYCARVVYWGQGTLVTVSS
VL: DIVMTQSPLSLPVTPGEPISLSCRSSKSLLHSNGKTYLYWFLQKPGQSPQLLLYRMSNLASGVPDRFSGSGSGTDFTLKISRVEAEDVGVYYCMQHLEYPYTFGGGTKLEIK
notes: Humanized (VH3/VL1c), human IgG1 with S239D/I332E (hG1DE)
Consider B8, for which the half-maximal effective concentration (EC50) was found to be 0.6 nM with human CXCR5 [1] and 0.05 nM with human CXCR5 [2].

B9: HFB2-6-hG1 (antibody, V domains shown)
VH: QIQLQQSGPELVEPGASVKLSCKASGYTFTDYTIHWVKQSPGQGLEWIGWIYPGSGNIKYNDKFKGKATMTADKSSSTAYMQLSSLTSEDSAVYFCARGLRREFAYWGQGTLVTVSA
VL: DIVMTQAAFSNPVTLGTSASISCRSSKSLLHSNGITYLYWYLQKPGQSPQLLIYQMSNLASGVPDRFSSSGSGTDFTLRISRVEAEDVGVYYCAQSLELPLTFGAGTKLELK
notes: Mouse-human chimeric antibody, human IgG1 constant region
Molecule B9 had an EC50 with human CXCR5 [6] of 0.5 nM. For the same molecule, the binding result in the experiment with human CXCR3 and in the experiment with murine CXCR5 was “no binding (tested: about 150 nM)” throughout.

B10: HFB2-VH10VL7 (antibody, V domains shown)
VH: QVQLVQSGAEVKKPGASVKVSCKASGFSLTSYGVSWVRQAPGQGLEWMGVIWGDGSTNYAQKLQGRVTMTKDTSTSTAYMELRSLRSDDTAVYYCARVVYWGQGTLVTVSS
VL: DIVMTQSPDSLAVSLGERATINCRSSKSLLHSNGKTYLYWFQQKPGQSPKLLLYRMSNLASGVPDRFSGSGSGTDFTLTISSLQAEDVAVYYCMQHLEYPYTFGQGTKLEIK
For the molecule B10, in the experiment with human CXCR5 [5], the binding result was “binds”.

B11: HFB2-VH8VL4 (antibody, V domains shown)
VH: QVQLVESGGGVVQPGRSLRLSCAVSGFSLTSYGVSWVRQAPGKGLEWLGVIWGDGSTNYHSGLISRLTISKDNSKNTVYLQMNSLRAEDTAVYYCARVVYWGQGTLVTVSS
VL: DIQMTQSPSSLSASVGDRVTITCRSSKSLLHSNGKTYLYWFQQKPGKAPKLLIYRMSNLASGVPSRFSGSGSGTDFTLTISSLQPEDFATYYCMQHLEYPYTFGGGTKVEIK
For B11, the binding result in the experiment with human CXCR5 [5] was “binds”.

B12: HFB2-VH8VL6 (antibody, V domains shown)
VH: QVQLVESGGGVVQPGRSLRLSCAVSGFSLTSYGVSWVRQAPGKGLEWLGVIWGDGSTNYHSGLISRLTISKDNSKNTVYLQMNSLRAEDTAVYYCARVVYWGQGTLVTVSS
VL: EIVMTQSPATLSVSPGERATLSCRSSKSLLHSNGKTYLYWFQQKPGQAPRLLIYRMSNLASGIPARFSGSGSGTEFTLTISSVQSEDVAVYYCMQHLEYPYTFGQGTKLEIK
For B12, the binding result with human CXCR5 [5] was “binds”.

B13: HFB2-4hz41hG1 (antibody, V domains shown)
VH: QVQLVESGGGVVQPGRSLRLSCAVSGFSLTSYGVSWVRQAPGKGLEWLGVIWGDGSTNYHSGLISRLTISKDNSKNTVYLQMNSLRAEDTAVYYCARVVYWGQGTLVTVSS
VL: DIVMTQSPDSLAVSLGERATINCRSSKSLLHSNGKTYLYWFQQKPGQSPKLLLYRMSNLASGVPDRFSGSGSGTDFTLTISSLQAEDVAVYYCMQHLEYPYTFGQGTKLEIK
notes: Humanized, human IgG1 (hG1); also called HFB2-VH8VL7
For the molecule B13, the binding result in the experiment with human CXCR5 [5] is on record as “binds”.

B14: HFB2-VH10VL4 (antibody, V domains shown)
VH: QVQLVQSGAEVKKPGASVKVSCKASGFSLTSYGVSWVRQAPGQGLEWMGVIWGDGSTNYAQKLQGRVTMTKDTSTSTAYMELRSLRSDDTAVYYCARVVYWGQGTLVTVSS
VL: DIQMTQSPSSLSASVGDRVTITCRSSKSLLHSNGKTYLYWFQQKPGKAPKLLIYRMSNLASGVPSRFSGSGSGTDFTLTISSLQPEDFATYYCMQHLEYPYTFGGGTKVEIK
B14: in the experiment with human CXCR5 [5], the binding result was “binds”.

B15: HFB2-4-hG1 (antibody, V domains shown)
VH: QVQLKESGPGLVAPSQSLSITCTVSGFSLTSYGVSWVRQPPGKGLEWLGVIWGDGSTNYHSGLISRLSISKDNSKSQVFLKLNSLQSDDTATYYCARVVYWGQGTLVTVSA
VL: DIVMTQAAPSVPVTPGESISISCRSSKSLLHSNGKTYLYWFLQRPGQSPQLLLYRMSNLASGVPDRFSGSGSGTAFTLRISRVEAEDVGVYYCMQHLEYPYTFGGGTKLEIK
notes: Mouse-human chimeric antibody, human IgG1 constant region; also called parental
Regarding B15, the concentration giving a half-maximal response (EC50) in the experiment with human CXCR5 [6] came to 0.924 nM. The binding result with human CXCR3 and with murine CXCR5 was “no binding (tested: about 150 nM)” throughout.

The EC50 is the concentration needed to bring the measured effect to its halfway point. A higher EC50 goes with a less potent agent.
